Laboratory results reported in PMC9082959, “Mechanism of Assembly of the Non-Covalent Spectrin Tetramerization Domain from Intrinsically Disordered Partners” (Journal of molecular biology, 2013).
Positions count from the first letter of the chain named. In names and notes the source's numbering stands. Blank lines part the entries; values can stand above or below the binder they belong to.

How the values were obtained:
[1] = molecular target: T1, β16β17 (erythrocyte β-spectrin residues 1898–2083), wild type (human, UniProt P11277 1898-2083); test: ITC; β16β17 at 25–50 μM in the cell titrated with 15–20 injections to 2–2.5 eq of α0α1; one-site binding model; PBS (50 mM sodium phosphate, 150 mM NaCl, pH 7.04), 25 °C; mutants only against the wild-type partner; settings: both partners purified
T1 construct: erythrocyte β-spectrin, human, residues 1898-2083 (β16 plus the incomplete 17th domain); synthetic gene (GenScript) in a modified pRSETA plasmid; source: E. coli C41(DE3), purified (Ni2+ agarose, thrombin cleavage, gel filtration)
T1 sequence (looked up): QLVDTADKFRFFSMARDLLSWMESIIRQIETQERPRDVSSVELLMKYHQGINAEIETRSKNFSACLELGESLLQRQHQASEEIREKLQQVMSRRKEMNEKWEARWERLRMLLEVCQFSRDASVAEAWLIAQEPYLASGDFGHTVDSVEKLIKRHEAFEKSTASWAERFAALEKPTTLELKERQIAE

[2] = molecular target: T1, β16β17 (erythrocyte β-spectrin residues …); test: as above; settings: both partners purified; remark: listed apart in the source

B1: α0α1 E85A (domain or fragment, human, UniProt P02549 2-163, looked up)
chain: EQFPKETVVESSGPKVLETAEEIQARRQEVLTRYQSFKERVAERGQKLEDSYHLQVFKRDADDLGKWIMEKVNILTDKSYEDPTNIQGKYQKHQSLEAEVQTKSRLMSELEKTREERFTMGHSAHEETKAHIEELRHLWDLLLELTLEKGDQLLRALKFQQY
notes: mutant of m1; also called E26A; source: E. coli C41(DE3), purified (Ni2+ agarose, thrombin cleavage, gel filtration)
- Ka [1]: 1.2e+06 M⁻¹

B3: α0α1 Q88A (domain or fragment, human, UniProt P02549 2-163, looked up)
chain: B1 chain with A25E, Q28A
notes: mutant of m1; also called Q29A; source: E. coli C41(DE3), purified (Ni2+ agarose, thrombin cleavage, gel filtration)
- Ka [2]: 1e+06 M⁻¹

B4: α0α1 E85G (domain or fragment, human, UniProt P02549 2-163, looked up)
chain: B1 chain with A25G
notes: mutant of m1; also called E26G; source: E. coli C41(DE3), purified (Ni2+ agarose, thrombin cleavage, gel filtration)
- Ka [1]: 830000 M⁻¹

B6: α0α1 E103G (domain or fragment, human, UniProt P02549 2-163, looked up)
chain: B1 chain with A25E, E43G
notes: mutant of m1; also called E44G; source: E. coli C41(DE3), purified (Ni2+ agarose, thrombin cleavage, gel filtration)
- Ka [1]: 220000 M⁻¹

B7: α0α1 E99G (domain or fragment, human, UniProt P02549 2-163, looked up)
chain: B1 chain with A25E, E39G
notes: mutant of m1; also called E40G; source: E. coli C41(DE3), purified (Ni2+ agarose, thrombin cleavage, gel filtration)
- Ka [1]: 800000 M⁻¹

B10: α0α1 Q95G (domain or fragment, human, UniProt P02549 2-163, looked up)
chain: B1 chain with A25E, Q35G
notes: mutant of m1; also called Q36G; source: E. coli C41(DE3), purified (Ni2+ agarose, thrombin cleavage, gel filtration)
- Ka [1]: 2e+06 M⁻¹

B11: α0α1 E99A (domain or fragment, human, UniProt P02549 2-163, looked up)
chain: B1 chain with A25E, E39A
notes: mutant of m1; also called E40A; source: E. coli C41(DE3), purified (Ni2+ agarose, thrombin cleavage, gel filtration)
- Ka [1]: 900000 M⁻¹

B12: α0α1 Q95A (domain or fragment, human, UniProt P02549 2-163, looked up)
chain: B1 chain with A25E, Q35A
notes: mutant of m1; also called Q36A; source: E. coli C41(DE3), purified (Ni2+ agarose, thrombin cleavage, gel filtration)
- Ka [1]: 2.29e+06 M⁻¹

B13: α0α1 F97A (domain or fragment, human, UniProt P02549 2-163, looked up)
chain: B1 chain with A25E, F37A
notes: mutant of m1; also called F38A; source: E. coli C41(DE3), purified (Ni2+ agarose, thrombin cleavage, gel filtration)
- Ka [2]: 58000 M⁻¹

B19: α0α1 L91A (domain or fragment, human, UniProt P02549 2-163, looked up)
chain: B1 chain with A25E, L31A
notes: mutant of m1; also called L32A; source: E. coli C41(DE3), purified (Ni2+ agarose, thrombin cleavage, gel filtration)
- Ka [2]: 1.3e+06 M⁻¹

B20: α0α1 E103A (domain or fragment, human, UniProt P02549 2-163, looked up)
chain: B1 chain with A25E, E43A
notes: mutant of m1; also called E44A; source: E. coli C41(DE3), purified (Ni2+ agarose, thrombin cleavage, gel filtration)
- Ka [1]: 810000 M⁻¹

Other lines, results leading:

- Ka [1]: 200000 M⁻¹
B2: α0α1 Q106G (domain or fragment, human, UniProt P02549 2-163, looked up)
chain: B1 chain with A25E, Q46G
notes: mutant of m1; also called Q47G; source: E. coli C41(DE3), purified (Ni2+ agarose, thrombin cleavage, gel filtration)

- Ka [2]: 670000 M⁻¹
B5: α0α1 Y94A (domain or fragment, human, UniProt P02549 2-163, looked up)
chain: B1 chain with A25E, Y34A
notes: mutant of m1; also called Y35A; source: E. coli C41(DE3), purified (Ni2+ agarose, thrombin cleavage, gel filtration)

- Ka [2]: 4.4e+06 M⁻¹
B8: α0α1 Y94L (domain or fragment, human, UniProt P02549 2-163, looked up)
chain: B1 chain with A25E, Y34L
notes: mutant of m1; also called Y35L; source: E. coli C41(DE3), purified (Ni2+ agarose, thrombin cleavage, gel filtration)

- Ka [1]: 670000 M⁻¹
B9: α0α1 T92A (domain or fragment, human, UniProt P02549 2-163, looked up)
chain: B1 chain with A25E, T32A
notes: mutant of m1; also called T33A; source: E. coli C41(DE3), purified (Ni2+ agarose, thrombin cleavage, gel filtration)

- Ka [2]: 6.7e+06 M⁻¹
B14: α0α1 R104A (domain or fragment, human, UniProt P02549 2-163, looked up)
chain: B1 chain with A25E, R44A
notes: mutant of m1; also called R45A; source: E. coli C41(DE3), purified (Ni2+ agarose, thrombin cleavage, gel filtration)

- Ka [1]: 4e+06 M⁻¹
B15: α0α1 R87G (domain or fragment, human, UniProt P02549 2-163, looked up)
chain: B1 chain with A25E, R27G
notes: mutant of m1; also called R28G; source: E. coli C41(DE3), purified (Ni2+ agarose, thrombin cleavage, gel filtration)

- Ka [1]: 1.3e+06 M⁻¹
B16: α0α1 Q106A (domain or fragment, human, UniProt P02549 2-163, looked up)
chain: B1 chain with A25E, Q46A
notes: mutant of m1; also called Q47A; source: E. coli C41(DE3), purified (Ni2+ agarose, thrombin cleavage, gel filtration)

- Ka [2]: 100000 M⁻¹
B17: α0α1 V101A (domain or fragment, human, UniProt P02549 2-163, looked up)
chain: B1 chain with A25E, V41A
notes: mutant of m1; also called V42A; source: E. coli C41(DE3), purified (Ni2+ agarose, thrombin cleavage, gel filtration)

- Ka [1]: 3.3e+06 M⁻¹
B18: α0α1 T92G (domain or fragment, human, UniProt P02549 2-163, looked up)
chain: B1 chain with A25E, T32G
notes: mutant of m1; also called T33G; source: E. coli C41(DE3), purified (Ni2+ agarose, thrombin cleavage, gel filtration)
